Results as given in PMC7545097, “Mapping the native interaction surfaces of PREP1 with PBX1 by cross-linking mass-spectrometry and mutagenesis” (Scientific Reports, 2020).
Substitutions are numbered along the chain they refer to. Numbers in names are those of the source.

T1: PREP1_(1-436), wild-type recombinant (TR-FIA) (UniProt P55347 1-436)
T1 construct: also called wild-type PREP1; PKNOX1; source: E. coli, purified
T1 sequence (looked up): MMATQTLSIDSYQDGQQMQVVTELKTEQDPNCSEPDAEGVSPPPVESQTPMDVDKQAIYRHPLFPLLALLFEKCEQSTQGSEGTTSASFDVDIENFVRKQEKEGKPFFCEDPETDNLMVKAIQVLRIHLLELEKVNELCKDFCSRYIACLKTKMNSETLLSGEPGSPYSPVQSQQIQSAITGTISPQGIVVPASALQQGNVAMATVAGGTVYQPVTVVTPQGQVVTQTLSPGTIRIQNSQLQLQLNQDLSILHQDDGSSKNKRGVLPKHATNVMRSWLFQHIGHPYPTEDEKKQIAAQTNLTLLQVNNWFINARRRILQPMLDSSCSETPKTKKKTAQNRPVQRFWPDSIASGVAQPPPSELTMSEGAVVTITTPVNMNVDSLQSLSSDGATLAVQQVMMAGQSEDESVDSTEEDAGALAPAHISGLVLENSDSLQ

T2: PBX1_(1-430), wild-type recombinant (human, UniProt P40424 1-430)
T2 construct: also called wild-type PBX1; purified recombinant human PBX1; source: E. coli, purified
T2 sequence (looked up): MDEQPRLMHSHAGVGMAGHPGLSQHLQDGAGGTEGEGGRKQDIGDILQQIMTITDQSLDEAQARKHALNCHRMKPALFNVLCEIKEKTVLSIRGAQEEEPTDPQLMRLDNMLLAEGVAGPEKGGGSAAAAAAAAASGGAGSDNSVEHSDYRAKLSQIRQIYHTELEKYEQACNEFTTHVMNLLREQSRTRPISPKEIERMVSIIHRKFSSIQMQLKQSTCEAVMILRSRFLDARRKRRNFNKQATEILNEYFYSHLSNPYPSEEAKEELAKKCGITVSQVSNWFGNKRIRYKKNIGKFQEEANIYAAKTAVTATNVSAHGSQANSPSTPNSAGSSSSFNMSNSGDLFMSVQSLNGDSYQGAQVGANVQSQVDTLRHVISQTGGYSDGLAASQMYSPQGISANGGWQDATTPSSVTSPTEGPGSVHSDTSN

B1: PBX1 I84A (natural protein, human, UniProt P40424 1-430, looked up)
chain: T2 sequence (looked up) with I84A
notes: PBX1, residues 1-430; source: E. coli, purified
B2: PBX1 L77A/I84A (natural protein, human, UniProt P40424 1-430, looked up)
chain: T2 sequence (looked up) with L77A, I84A
notes: as for B1
B3: PBX1 L77A/V80A (natural protein, human, UniProt P40424 1-430, looked up)
chain: T2 sequence (looked up) with L77A, V80A
notes: as for B1
B4: PBX1 L77A/V80A/L81A (natural protein, human, UniProt P40424 1-430, looked up)
chain: T2 sequence (looked up) with L77A, V80A, L81A
notes: as for B1
B5: PBX1 L105A (natural protein, human, UniProt P40424 1-430, looked up)
chain: T2 sequence (looked up) with L105A
notes: PBX1, residues 1-430; single alanine substitution; source: E. coli, purified
B6: PBX1 L81A (natural protein, human, UniProt P40424 1-430, looked up)
chain: T2 sequence (looked up) with L81A
notes: as for B1
B7: PBX1 V80A (natural protein, human, UniProt P40424 1-430, looked up)
chain: T2 sequence (looked up) with V80A
notes: as for B1
B8: PBX1 L105A/L108A (natural protein, human, UniProt P40424 1-430, looked up)
chain: T2 sequence (looked up) with L105A, L108A
notes: as for B1
B9: PBX1 L112A (natural protein, human, UniProt P40424 1-430, looked up)
chain: T2 sequence (looked up) with L112A
notes: as for B5
B10: PBX1 V80A/L81A (natural protein, human, UniProt P40424 1-430, looked up)
chain: T2 sequence (looked up) with V80A, L81A
notes: as for B1
B11: PBX1 L108A (natural protein, human, UniProt P40424 1-430, looked up)
chain: T2 sequence (looked up) with L108A
notes: as for B5
B12: PBX1 L105A/L108A/L112A (natural protein, human, UniProt P40424 1-430, looked up)
chain: T2 sequence (looked up) with L105A, L108A, L112A
notes: as for B1
B13: PREP1 L132A (natural protein, UniProt P55347 1-436, looked up)
chain: T1 sequence (looked up) with L132A
notes: PREP1 (PKNOX1), residues 1-436

Biological target: T1, PREP1_(1-436), wild-type recombinant …
Experiment: time-resolved fluorescence immunoassay (TR-FIA); plate coated with monoclonal anti-PBX1; PBX1 pre-incubated with PREP1 or MEIS1 for 1 h on ice, 10 µg/mL in 1% BSA PBS, 1 h at room temperature on the plate; detected with anti-PREP1 or biotinylated anti-MEIS1/2 and Eu^3+ conjugates; normalised to the wild-type protein taken as 1
Conditions: both partners purified

| binding result | Molecule |
| --- | --- |
| binds | B1 |
| binds | B2 |
| binds | B3 |
| binds | B4 |
| binds | B5 |
| binds | B6 |
| binds | B7 |
| binds | B8 |
| binds | B9 |
| binds | B10 |
| binds | B11 |
| binds | B12 |

Biological target: T2, PBX1_(1-430), wild-type recombinant
Experiment: as above
Conditions: not given

| binding relative to wild type [%] | Molecule |
| --- | --- |
| 30 | PREP1 HR2m (I122A/L125A/L129A/L132A), TR-FIA (from UniProt P55347 1-436) (natural protein) |

Same assay, conditions: both partners purified

| binding relative to wild type [%] | Molecule |
| --- | --- |
| 40 | B13 |
